Results: patent US20220242973A1 (Molecular Partners, published 2022)

T1: Human FAP expressed on the cell surface (WI38, CHO-FAP1.9, U87MG cells) (human, UniProt Q12884 1-760)
T1 construct: whole, on cells; Endogenous on WI38 and U87MG cells; from a human FAP cDNA (OriGene) in CHO-FAP1.9 cells; also called hFAP; FAP+ cells
T1 sequence (looked up): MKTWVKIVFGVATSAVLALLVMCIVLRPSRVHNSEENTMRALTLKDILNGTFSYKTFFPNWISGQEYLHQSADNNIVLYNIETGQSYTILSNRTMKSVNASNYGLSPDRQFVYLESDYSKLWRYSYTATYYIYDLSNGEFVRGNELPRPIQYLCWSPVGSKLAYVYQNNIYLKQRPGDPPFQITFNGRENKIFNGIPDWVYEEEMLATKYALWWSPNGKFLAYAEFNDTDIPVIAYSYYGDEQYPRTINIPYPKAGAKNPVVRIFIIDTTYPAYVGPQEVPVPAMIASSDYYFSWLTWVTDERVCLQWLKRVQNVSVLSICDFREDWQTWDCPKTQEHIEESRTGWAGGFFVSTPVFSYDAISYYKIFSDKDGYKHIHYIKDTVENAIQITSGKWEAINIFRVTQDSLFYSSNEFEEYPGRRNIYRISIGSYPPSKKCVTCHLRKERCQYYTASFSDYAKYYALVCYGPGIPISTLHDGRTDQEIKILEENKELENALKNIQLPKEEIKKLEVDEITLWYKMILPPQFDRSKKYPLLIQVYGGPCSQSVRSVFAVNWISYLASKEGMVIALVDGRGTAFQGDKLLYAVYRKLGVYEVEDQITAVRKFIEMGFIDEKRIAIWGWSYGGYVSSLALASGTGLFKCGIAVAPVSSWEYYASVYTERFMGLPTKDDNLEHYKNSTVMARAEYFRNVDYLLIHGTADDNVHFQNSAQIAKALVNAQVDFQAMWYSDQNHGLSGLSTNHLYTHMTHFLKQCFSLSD

T2: Recombinant human FAP (fibroblast activation protein) (human, UniProt Q12884 26-760)
T2 sequence (looked up): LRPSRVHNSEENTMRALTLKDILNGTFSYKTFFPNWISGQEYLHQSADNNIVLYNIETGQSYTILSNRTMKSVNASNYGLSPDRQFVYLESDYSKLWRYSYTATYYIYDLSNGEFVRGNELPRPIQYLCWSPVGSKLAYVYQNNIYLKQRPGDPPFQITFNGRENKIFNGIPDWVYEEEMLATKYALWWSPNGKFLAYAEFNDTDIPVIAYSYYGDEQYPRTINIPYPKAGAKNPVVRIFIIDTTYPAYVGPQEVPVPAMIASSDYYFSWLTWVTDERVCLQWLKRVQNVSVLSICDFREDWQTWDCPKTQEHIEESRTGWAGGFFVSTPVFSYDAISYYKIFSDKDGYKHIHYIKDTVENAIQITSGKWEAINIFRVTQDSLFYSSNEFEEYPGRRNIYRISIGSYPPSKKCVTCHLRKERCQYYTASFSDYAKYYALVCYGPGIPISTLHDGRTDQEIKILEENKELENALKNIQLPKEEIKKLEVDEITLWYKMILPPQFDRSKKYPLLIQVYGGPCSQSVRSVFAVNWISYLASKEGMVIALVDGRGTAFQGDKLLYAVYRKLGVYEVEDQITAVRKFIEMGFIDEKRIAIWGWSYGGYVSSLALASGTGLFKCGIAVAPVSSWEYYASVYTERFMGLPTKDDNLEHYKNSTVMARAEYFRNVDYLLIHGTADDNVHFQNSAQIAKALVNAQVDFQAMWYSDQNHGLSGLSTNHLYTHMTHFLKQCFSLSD

B1: DARPin® protein #26 (designed binder)
chain: MRGSHHHHHHGSYPYDVPDYAGSDLGKKLLEAARAGQDDEVRELLKAGADVNAKDEVGRTPLHLAAQIGHLEIVEVLLKAGADVNAKNRWGVTPLHVAAWVGHLEIVEVLLKAGADVNAKDQQGATPLHLAAIRGHLEIVEVLLKAGADVNAQDKSGKTPADLAADAGHEDIAEVLQKLN
B2: DARPin® protein #33 (designed binder)
chain: MRGSHHHHHHGSYPYDVPDYAGSDLGKKLLEAARAGQDDEVRELLKAGADVNAKDEWGKTPLHLAAIRGHLEIVEVLLKAGADVNAKDTHGITPLHLAAFVGHLEIVEVLLKAGADVNAKDYLGRTPLHIAAAKGHLEIVEVLLKAGADVNAQDKSGKTPADLAADAGHEDIVEVLQKLN
B3: DARPin® protein #18 (designed binder)
chain: MRGSHHHHHHGSYPYDVPDYAGSDLGKKLLEAARAGQDDEVRILLAAGADVNAKDVLGWTPLHLAAFEGHLEIVEVLLKAGADVNAKDKKGWTPLQLAARTGHLEIVEVLLKAGADVNAKDHIGATPLHLAAWQGHPEIVEVLLKAGADVNAQDKSGKTPADLAADAGHEDIAEVLQKLN
B4: DARPin® protein #19 (designed binder)
chain: MRGSHHHHHHGSYPYDVPDYAGSDLGEKLLVAALYGQDDEVRILLAAGADVNAKDQWGLTPLHKAALQGHLEIVEVLLKAGADVNAKDERGHTPLHWAARFGHLEIVEVLLKAGADVNAQDQKGYTPADLAALWGHEDIAEVLQKLN
B5: DARPin® protein #40 (designed binder)
chain: MRGSHHHHHHGSDLGKKLLEAARAGQDDEVRELLKAGADVNAKDYFSHTPLHLAARNGHLKIVEVLLKAGADVNAKDFAGKTPLHLAANEGHLEIVEVLLKAGADVNAQDIFGKTPADIAADAGHEDIAEVLQKAAGSPTPTPTTPTPTPTTPTPTPTGSDLGKKLLEAARAGQDDEVRILLAAGADVNAKDVLGWTPLHLAAFEGHLEIVEVLLKAGADVNAKDKKGWTPLQLAARTGHLEIVEVLLKAGADVNAKDHIGATPLHLAAWQGHPEIVEVLLKAGADVNAQDKSGKTPADLAADAGHEDIAEVLQKAA
notes: Fusion of a serum albumin-specific and a FAP-specific ankyrin repeat domain
B6: DARPin® protein #9 (designed binder)
chain: MRGSHHHHHHGSYPYDVPDYAGSDLGKKLLEAARAGQDDEVRILMANGADVNAFDTTGRTPLHLAALWGHLEIVEVLLKHGADVNASDWFSITPLHLAAFMGHLEIVEVLLNHGADVNAQDKFGKTAFDISIDHGNEDLAEILQKLN
B7: DARPin® protein #4 (designed binder)
chain: MRGSHHHHHHGSYPYDVPDYAGSDLGHKLLEAATQGQDDEVRILLAAGADVNAKDEHGKTPLHLAAKKGHLEIVEVLLKAGADVNAKDDWGVTPLHLAAYWGHLEIVEVLLKAGADVNAQDNDGYTPADLAATFGHEDIAEVLQKLN

What follows are binders tested against T3, Cynomolgus FAP expressed on CHO cells (cynomolgus monkey (Macaca fascicularis)) (assay: FACS on cFAP-expressing CHO cells).
T3 construct: whole, on cells; also called cFAP-expressing CHO cells; cynomolgus FAP+ CHO cells
Procedure: (§1) Using multi-well plates, 20,000 WI38 cells were added per well in 50 μl of PBS. 50 μl of appropriate dilutions (2× dilution steps) of ankyrin repeat protein was then added to the cells and incubated for 30 minutes on ice. After the ankyrin repeat protein-binding reaction, cells were washed twice with PBS. Direct immunofluorescent detection of the His-tagged ankyrin repeat proteins using Penta-His AF647 conjugate (QIAgen) and determination of live cells using LIVE/DEAD™ Fixable Green Dead Cell Stain Kit (ThermoFisher) were then performed together in one step. The Penta-His AF647 conjugate and the LIVE/DEAD™ Fixable Green dye were applied to the cells together in 1/200 (Penta-His) and 1/1000 (LID Fixable) final dilutions and incubated for 20-30 minutes on ice. After washing the cells with PBS, cells were re-suspended in 1× CellFix™ buffer (BD Biosciences) (10× stock was diluted 1/10 in water). The samples were incubated in CellFix™ buffer for 15-20 minutes at RT, then spun down at 400 g for 5 min. Supernatant was discarded and cells were re-suspended in 200 μl PBS and stored at 4° C. until acquisition and FACS analysis. Acquisition and FACS analysis, including the determination of median fluorescence intensity (MFI), were done within 5 days after staining using an AttuneNxT instrument. Binding curves were fitted by non-linear regression curve fitting using GraphPad Prism software (v 7.0.4).
A series of dilutions of ankyrin repeat proteins were added to cFAP expressing CHO cells. The binding reaction and subsequent analysis and MFI measurements were performed essentially as described in Example 3 for the WI38 cells.

| Binder | EC50 [pM] |
| --- | --- |
| B1 | 6100 |
| B2 | 7900 |
| B3 | 5600 |
| B4 | 4100 |

The binders below were run against T1, Human FAP expressed on the cell surface … (assay: FACS on U87MG cells (FAP on the cell surface), His-tag detected with Penta-His AF647 conjugate, median fluorescence intensity).
Procedure: (§2) In order to determine whether the fusion of a biologically active molecule to a FAP-specific ankyrin repeat domain affects the ability of the molecule to specifically recognize and bind to FAP expressed on the surface of cells, the binding of selected ankyrin repeat fusion proteins to FAP-expressing cells was tested. U87 MG cells and WI38 cells are known to express FAP on the cell surface and they were chosen as representative cells for these experiments. FAP expression on the U87 MG and WI38 cells was confirmed by FACS analysis (data not shown).
(§3) Using multi-well plates, 40,000 cells (either U87MG or WI38) were added per well in 50 μl of PBS. 50 μl of appropriate dilutions (2× dilution steps) of ankyrin repeat fusion protein (DARPin® protein #40 or DARPin® protein #41) was then added to the cells and incubated for 30 minutes on ice. After the ankyrin repeat fusion protein-binding reaction, cells were washed twice with PBS. Direct immunofluorescent detection of the His-tagged ankyrin repeat fusion proteins using Penta-His AF647 conjugate (QIAgen) and determination of live cells using LIVE/DEAD™ Fixable Green Dead Cell Stain Kit (ThermoFisher) were then performed together in one step. […] Acquisition and FACS analysis, including the determination of median fluorescence intensity (MFI), were done within 5 days after staining using an AttuneNxT instrument. […]

| Binder | EC50 (read off the curve) [pM] |
| --- | --- |
| B5 | ~2000 |

These binders were tested against T1, Human FAP expressed on the cell surface … (assay: FACS on WI38 cells (FAP on the cell surface), His-tag detected with Penta-His AF647 conjugate, median fluorescence intensity).
Procedure: as §2, §3

| Binder | EC50 (read off the curve) [pM] |
| --- | --- |
| B5 | ~2000 |

These binders were tested against T1, Human FAP expressed on the cell surface … (assay: FACS on FAP-expressing WI38 cells, Penta-His AF647 detection).
Procedure: as §1
EC₅₀ values were determined using standard procedures known to the person skilled in the art. […] Table 2 provides the EC₅₀ values of selected ankyrin repeat proteins as examples.

| Binder | EC50 [pM] |
| --- | --- |
| B1 | 150 |
| B2 | 206 |
| B6 | 276 |
| B3 | 188 |
| B4 | 308 |
| B7 | 1090 |

What follows are binders tested against T2, Recombinant human FAP (fibroblast …) (assay: cell-based or functional assay).

| Binder | FAP activity (%) |
| --- | --- |
| B1 | 106 |
| B2 | 102 |
| B6 | 115 |
| B3 | 112 |
| B4 | 94 |
| B7 | 111 |

The binders below were run against T2, Recombinant human FAP (fibroblast …) (assay: SPR (ProteOn), human FAP immobilized on GLC chip).
Procedure: Briefly, human FAP was diluted in 10 mM Na-acetate pH 5.3 buffer and covalently immobilized on a GLC chip (BioRad) to a level of around 2000 resonance units (RU). The interaction of ankyrin repeat protein and hFAP was then measured by injecting 200 μl running buffer (PBS, pH 7.4 containing 0.005% Tween 20®) containing serial dilutions of ankyrin repeat proteins covering a concentration range between 30 nM and 0.5 nM (on-rate measurement), followed by a running buffer flow for at least 25 minutes at a constant flow rate of 100 μl/min (off-rate measurement). The regeneration was performed using 15 μl of 10 mM Glycine pH 2 followed by 15 μl of 124 mM H₃PO₄. The signals (i.e. resonance unit (RU) values) of the interspots and a reference injection (i.e. injection of running buffer only) were subtracted from the RU traces obtained after injection of ankyrin repeat protein (double-referencing). Based on the SPR traces obtained from the on-rate and off-rate measurements, the on- and off-rate of the corresponding ankyrin repeat protein—FAP interaction was determined.
Dissociation constants (KD) were calculated from the estimated on- and off-rates using standard procedures known to the person skilled in the art. […] Table 1 provides the KD values of some selected ankyrin repeat proteins as examples.

| Binder | Kd [pM] |
| --- | --- |
| B1 | 53 |
| B2 | 241 |
| B6 | 186 |
| B3 | 115 |
| B4 | 195 |
| B7 | 1350 |
